From publication PMC6039445 (Nature Communications, 2018)

B1: H3v-47 Fab (Fab, V domains shown)
VH: QVQLVQSGAEVKKPGSSVRVSCKASGDTFSSYSITWVRQAPGHGLQWMGGIFPIFGSTNYAQKFDDRLTITTDDSSRTVYMELTSLRLEDTAVYYCARGASKVEPAAPAYSDAFDMWGQGTLVTVSS
VL: DIVMTQSPGTLSLSPGERATLSCRTSQGVSSSYLAWYQQKPGQAPRLLISGSSSRATGIPDRFSGSGSGRDFTLTISRLEPEDSAVYYCQQYATSPTFGQGTRVEIK
B2: H3v-47 IgG (antibody, V domains shown)
VH: QVQLVQSGAEVKKPGSSVRVSCKASGDTFSSYSITWVRQAPGHGLQWMGGIFPIFGSTNYAQKFDDRLTITTDDSSRTVYMELTSLRLEDTAVYYCARGASKVEPAAPAYSDAFDMWGQGTLVTVSS
VL: DIVMTQSPGTLSLSPGERATLSCRTSQGVSSSYLAWYQQKPGQAPRLLISGSSSRATGIPDRFSGSGSGRDFTLTISRLEPEDSAVYYCQQYATSPTFGQGTRVEIK
notes: also called mAb H3v-47; source: human hybridoma cell line, serum-free medium, purified (protein G); copies: 2 + 2

Assays:
[1] = molecular target: HA of the Beijing 1989 strain (A/Beijing/353/1989 H3N2), soluble, biotinylated (Influenza A virus A/Beijing/353/1989 …, UniProt O11283, strain, biotin (site not stated)); test: BLI; conditions: both partners purified
[2] = molecular target: HA of the Shandong 1993 strain (A/Shandong/9/1993 H3N2), soluble, biotinylated (Influenza A virus A/Shandong/9/1993 …, UniProt H9XM74, strain, biotin (site not stated)); test: BLI; conditions: both partners purified

Binder	binding result [1]	binding result [2]
B1	binds	binds
B2	binds	binds
